Residue numbers refer to the chain shown, from its start.

The source of these data is patent US20200002436A1 (DRAGONFLY THERAPEUTICS, published 2020).

First the molecules themselves.
T1: mouse recombinant NKG2D-Fc (mouse; human, UniProt O54709 90-232)
T1 construct: extracellular domain; also called recombinant mouse NKG2D-Fc; Mouse NKG2D-Fc-biotin; not shown: human IgG1 Fc domain
T1 sequence (looked up): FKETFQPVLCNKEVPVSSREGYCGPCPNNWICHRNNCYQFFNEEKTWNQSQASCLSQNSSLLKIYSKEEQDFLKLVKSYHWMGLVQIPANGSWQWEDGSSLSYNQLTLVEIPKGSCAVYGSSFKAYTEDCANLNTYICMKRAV

T2: cynomolgus recombinant NKG2D-Fc (cynomolgus; human, UniProt P61252 73-216)
T2 construct: extracellular domain; also called cynomolgus NKG2D-Fc; not shown: human IgG1 Fc domain
T2 sequence (looked up): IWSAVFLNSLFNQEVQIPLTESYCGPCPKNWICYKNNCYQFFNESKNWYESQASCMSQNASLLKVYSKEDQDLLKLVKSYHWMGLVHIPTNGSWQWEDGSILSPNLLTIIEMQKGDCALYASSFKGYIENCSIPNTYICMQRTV

T3: human recombinant NKG2D-Fc (human, UniProt P26718 73-216)
T3 construct: extracellular domain; also called recombinant human NKG2D-Fc; NKG2D-Fc fusion protein; not shown: human IgG1 Fc domain
T3 sequence (looked up): T2 sequence (looked up) with N43D, I133T

B1: ADI-27705 (antibody, V domains shown)
VH: QVQLQQWGAGLLKPSETLSLTCAVYGGSFSGYYWSWIRQPPGKGLEWIGEIDHSGSTNYNPSLKSRVTISVDTSKNQFSLKLSSVTAADTAVYYCARARGPWSFDPWGQGTLVTVSS
VL: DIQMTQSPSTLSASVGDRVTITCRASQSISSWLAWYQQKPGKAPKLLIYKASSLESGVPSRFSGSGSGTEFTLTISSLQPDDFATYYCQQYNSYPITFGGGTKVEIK
B2: ADI-27724 (antibody, V domains shown)
VH: B1 VH
VL: not shown
B3: ADI-29403 (antibody, V domains shown)
VH: B1 VH
VL: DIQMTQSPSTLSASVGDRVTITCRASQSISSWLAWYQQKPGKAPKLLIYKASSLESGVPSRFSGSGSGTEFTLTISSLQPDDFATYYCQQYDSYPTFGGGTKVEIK
B4: ADI-29424 (antibody, V domains shown)
VH: B1 VH
VL: DIQMTQSPSTLSASVGDRVTITCRASQSISSWLAWYQQKPGKAPKLLIYKASSLESGVPSRFSGSGSGTEFTLTISSLQPDDFATYYCQQYDSFITFGGGTKVEIK
B5: ADI-29425 (antibody, V domains shown)
VH: B1 VH
VL: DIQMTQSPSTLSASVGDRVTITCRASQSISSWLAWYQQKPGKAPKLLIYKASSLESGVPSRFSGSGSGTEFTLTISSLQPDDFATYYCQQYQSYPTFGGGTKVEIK
B6: ADI-29421 (antibody, V domains shown)
VH: B1 VH
VL: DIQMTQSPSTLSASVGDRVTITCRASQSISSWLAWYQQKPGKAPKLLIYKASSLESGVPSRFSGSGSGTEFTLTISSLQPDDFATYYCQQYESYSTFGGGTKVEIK
B7: ADI-29407 (antibody, V domains shown)
VH: B1 VH
VL: B4 VL with D92Q, I95P
B8: ADI-28226 (antibody, V domains shown)
VH: B1 VH
VL: DIQMTQSPSTLSASVGDRVTITCRASQSISSWLAWYQQKPGKAPKLLIYKASSLESGVPSRFSGSGSGTEFTLTISSLQPDDFATYYCQQYGSFPITFGGGTKVEIK
notes: also called C26
B9: ADI-29405 (antibody, V domains shown)
VH: B1 VH
VL: B4 VL with D92G, I95P
B10: ADI-29401 (antibody, V domains shown)
VH: B1 VH
VL: B4 VL with S30G, S93I, F94Y, I95P
B11: ADI-29429 (antibody, V domains shown)
VH: B1 VH
VL: B8 VL with S30G, G92E, S93L, F94Y, P95S, I96Y
B12: ADI-27741 (antibody, V domains shown)
VH: B1 VH
VL: B4 VL with S30G, Y91S, D92N, F94Y, I95Y
B13: ADI-29426 (antibody, V domains shown)
VH: B1 VH
VL: B4 VL with S30G, D92H, I95P
B14: ADI-29419 (antibody, V domains shown)
VH: B1 VH
VL: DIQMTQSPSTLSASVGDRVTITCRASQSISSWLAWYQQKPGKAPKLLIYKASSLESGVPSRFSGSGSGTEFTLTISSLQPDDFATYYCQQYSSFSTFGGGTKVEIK
B15: ADI-27740 (antibody, V domains shown)
VH: B1 VH
VL: B4 VL with S30G, D92H, I95Y
notes: also called A40
B16: ADI-27743 (antibody, V domains shown)
VH: B1 VH
VL: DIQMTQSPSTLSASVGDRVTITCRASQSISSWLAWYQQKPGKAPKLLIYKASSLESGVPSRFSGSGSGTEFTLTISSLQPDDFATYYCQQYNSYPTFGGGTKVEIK
B17: ADI-29404 (antibody, V domains shown)
VH: B1 VH
VL: B4 VL with Q89E, F94Y, I95P
notes: also called F04
B18: ADI-29399 (antibody, V domains shown)
VH: B1 VH
VL: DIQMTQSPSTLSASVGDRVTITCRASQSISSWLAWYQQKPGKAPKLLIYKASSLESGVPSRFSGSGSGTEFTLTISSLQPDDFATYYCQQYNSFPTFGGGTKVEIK
B19: ADI-29447 (antibody, V domains shown)
VH: B1 VH
VL: B4 VL with S93T
notes: also called F47
B20: ADI-29443 (antibody, V domains shown)
VH: QLQLQESGPGLVKPSETLSLTCTVSGGSISSSSYYWGWIRQPPGKGLEWIGSIYYSGSTYYNPSLKSRVTISVDTSKNQFSLKLSSVTAADTAVYYCARGSDRFHPYFDYWGQGTLVTVSS
VL: EIVLTQSPATLSLSPGERATLSCRASQSVSRYLAWYQQKPGQAPRLLIYDASNRATGIPARFSGSGSGTDFTLTISSLEPEDFAVYYCQQFDTWPPTFGGGTKVEIK
notes: also called F43
B21: ADI-27727 (antibody, V domains shown)
VH: QVQLVQSGAEVKKPGSSVKVSCKASGGTFSSYAISWVRQAPGQGLEWMGGIIPIFGTANYAQKFQGRVTITADESTSTAYMELSSLRSEDTAVYYCARGDSSIRHAYYYYGMDVWGQGTTVTVSS
VL: not shown

The first experiment has as its target T1, mouse recombinant NKG2D-Fc. The experiment can be described thus: ELISA on coated NKG2D-Fc.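 Also: titrated NKG2D binders added to plates coated with human, mouse or cynomolgus NKG2D ectodomain–human IgG1 Fc fusions, detected by HRP anti-human kappa antibody with TMB, absorbance at 450 nm.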 A general note: ELISA stands for enzyme-linked immunosorbent assay.
Excerpt: (§1) The nucleic acid sequences of human, mouse or cynomolgus NKG2D ectodomains were fused with nucleic acid sequences encoding human IgG1 Fc domains and introduced into mammalian cells to be expressed. After purification, NKG2D-Fc fusion proteins were adsorbed to wells of microplates. After blocking the wells with bovine serum albumin to prevent non-specific binding, NKG2D-binding domains were titrated and added to the wells pre-adsorbed with NKG2D-Fc fusion proteins. Primary antibody binding was detected using a secondary antibody which was conjugated to horseradish peroxidase and specifically recognizes a human kappa light chain to avoid Fc cross-reactivity. 3,3′,5,5′-Tetramethylbenzidine (TMB), a substrate for horseradish peroxidase, was added to the wells to visualize the binding signal, whose absorbance was measured at 450 nm and corrected at 540 nM.
Turning to B1, the binding result was “binds”.

Take B2: the binding result is reported as “binds”.

Turning to B3, the binding result is listed as “binds”.

In the case of B4, the binding result is given as “binds”.

For the molecule B5, the binding result is on record as “binds”.

For the molecule B6, the binding result is given as “binds”.

With B7, the binding result was “binds”.

On to B8, for which the binding result is “binds”.

B9: the binding result was “binds”.

As for B10, the binding result is listed as “binds”.

Consider B11, for which the binding result is “binds”.

On to B12, for which the binding result is given as “binds”.

As to B13, the binding result was “binds”.

Turning to B14, the binding result was “binds”.

B15: the binding result is given as “binds”.

In the case of B16, the binding result is on record as “binds”.

For B17, the binding result is on record as “binds”.

B18: the binding result is reported as “binds”.

For the molecule B19, the binding result is “binds”.

Consider B20, for which the binding result was “binds”.

For the molecule B21, the binding result is on record as “binds”.

A further experiment deals with T2, cynomolgus recombinant NKG2D-Fc. The experiment is described as follows: ELISA on coated NKG2D-Fc.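 Also: titrated NKG2D binders added to plates coated with human, mouse or cynomolgus NKG2D ectodomain–human IgG1 Fc fusions, detected by HRP anti-human kappa antibody with TMB, absorbance at 450 nm.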
Excerpt: as §1
With B1, the binding result was “binds”.

Regarding B2, the binding result is listed as “binds”.

As to B3, the binding result is reported as “binds”.

On to B4, for which the binding result is recorded as “binds”.

With B5, the binding result is “binds”.

For the molecule B6, the binding result is on record as “binds”.

Turning to B7, the binding result was “binds”.

Regarding B8, the binding result is “binds”.

For B9, the binding result is reported as “binds”.

On to B10, for which the binding result is “binds”.

In the case of B11, the binding result was “binds”.

With B12, the binding result is on record as “binds”.

In the case of B13, the binding result was “binds”.

Take B14: the binding result is on record as “binds”.

On to B15, for which the binding result is reported as “binds”.

As to B16, the binding result is given as “binds”.

As to B17, the binding result was “binds”.

In the case of B18, the binding result is listed as “binds”.

Take B19: the binding result is recorded as “binds”.

For the molecule B21, the binding result was “binds”.

The target in a further experiment is T3, human recombinant NKG2D-Fc. The experiment can be described thus: ELISA on coated NKG2D-Fc.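 Also: titrated NKG2D binders added to plates coated with human, mouse or cynomolgus NKG2D ectodomain–human IgG1 Fc fusions, detected by HRP anti-human kappa antibody with TMB, absorbance at 450 nm.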
Excerpt: as §1
For the molecule B1, the binding result is “binds”.

B2: the binding result is reported as “binds”.

For the molecule B3, the binding result is “binds”.

In the case of B4, the binding result was “binds”.

As for B5, the binding result is reported as “binds”.

On to B6, for which the binding result is recorded as “binds”.

As for B7, the binding result is given as “binds”.

Take B8: the binding result is listed as “binds”.

On to B9, for which the binding result is recorded as “binds”.

For the molecule B10, the binding result is given as “binds”.

Consider B11, for which the binding result is “binds”.

Consider B12, for which the binding result is recorded as “binds”.

On to B13, for which the binding result was “binds”.

Turning to B14, the binding result was “binds”.

On to B15, for which the binding result is “binds”.

As to B16, the binding result is listed as “binds”.

As for B17, the binding result is on record as “binds”.

As for B18, the binding result is “binds”.

With B19, the binding result is “binds”.

B20: the binding result was “binds”.

On to B21, for which the binding result is “binds”.
